Experiments:
[1] = molecular target: Singapore16 N2 NA (head domain, residues 82-469) with VASP tetramerization domain (influenza A virus A/Singapore/INFIMH-16-0019/2016 (H3N2)); assay: negative-stain electron microscopy
[2] = molecular target: Singapore16 N2 NA (head domain, residues 82-469) without VASP tetramerization domain (influenza A virus A/Singapore/INFIMH-16-0019/2016 (H3N2)); assay: negative-stain electron microscopy

Substance | stoichiometry N [1] | stoichiometry N [2]
Singapore16 N2 NA (head domain, residues 82-469) with VASP tetramerization domain (domain or fragment) | 4 | 
Singapore16 N2 NA (head domain, residues 82-469) without VASP tetramerization domain (domain or fragment) |  | 4

Source: PMC9772378
